US5494895A, “Scorpion peptide margatoxin with immunosuppressant activity” (Merck & Co., Inc., priority 1993, dated 1996)
Ends that are not written are not given here.

What was measured:
Kv 1.6 = target: T1, Kv 1.6 (Rattus norvegicus, UniProt P17659); details: rat clone; cited from earlier work
T1 construct: expressed in transfected cells; host or cells: Xenopus oocytes injected with RNA transcribed in vitro from the cDNA clone

Kv 1.3 = target: T2, Kv 1.3 (Rattus norvegicus, UniProt P15384); test: [125I]ChTX binding to rat brain synaptic plasma membrane vesicles
T2 construct: from tissue; host or cells: rat brain synaptic plasma membrane vesicles
Protocol: (§1) The potency of MgTX as an inhibitor of [^125 I]ChTX binding to Kv 1.3 was evaluated. The binding of [^125 I]ChTX to either rat brain synaptic plasma membrane vesicles (Kv 1.3 channel; Vazquez et al., J. Biol. Chem. 265, 15564, 1990) or bovine aortic smooth muscle sarcolemmal membranes (Maxi-K channel; Vazquez et al., J. Biol. Chem. 264, 20402, 1989) was determined as described. Briefly, membrane vesicles were incubated with [^125 I]ChTX in the presence or absence of other added agents, until equilibrium was achieved. Separation of bound from free ligand was accomplished by filtration through GF/C glass fiber filters (WHATMAN) that had been presoaked in 0.5% polyethyleneimine. Nonspecific binding was determined in the presence of 10 nM unlabeled ChTX. Data from saturation experiments were analyzed in a Scatchard representation to determine Kd and Bmax values. Triplicate samples were obtained for each experimental point and the data were averaged. The standard deviation of the mean was typically less than 2%. […] As an indication of selectivity, MgTX had no effect on [^125 I]ChTX binding to the Maxi-K channel in smooth muscle membranes at concentrations up to 10 nM.

Maxi-K channel = target: T3, Maxi-K channel (Bos taurus, UniProt Q28204); test: [125I]ChTX binding to bovine aortic smooth muscle sarcolemmal membranes
T3 construct: from tissue; host or cells: bovine aortic smooth muscle sarcolemmal membranes
Protocol: as §1

[1] = target: T4, lymphocyte Kv 1.3 current (Homo sapiens, UniProt P22001); test: Whole cell patch clamp of human peripheral T-lymphocytes; assay type: cell-based; details: electrophysiology, Example 8
T4 construct: endogenous in cells; host or cells: purified human peripheral blood T lymphocytes
Protocol: Ionic currents were recorded from human peripheral T-lymphocytes using the whole cell patch clamp technique described in Cahalan, M. and Neher, E., Meth. Enzymol. 207, 3, 1992. Purified human T cells were obtained as described in Leonard et al., Proc. Natl. Acad. Sci. U.S.A., 89, 10094, 1992, and recordings were carried out in a bath solution consisting of ^125 mM NaCl, 2.5 mM KCl, 1.0 mM CaCl2, 2.0 mM MgCl2, 10 mM HEPES (potassium salt), 10 mM glucose, 5 mM Na-pyruvate, and 0.05% BSA. The pH was adjusted to 7.2, and experiments were performed at room temperature (19°-22° C.). The intracellular (pipette) solution contained 140 mM K-glutamate, 1 mM MgCl2, 10 mM HEPES (potassium salt), and 0.1 mM EGTA. The pH was adjusted to 7.2. Patch pipettes were fabricated from DAGAN (Minneapolis, Minn.) LG-16 glass and had resistances of 2 to 8M.OMEGA.. Currents were measured using a DAGAN model 3900 patch clamp. Delivery of command voltages, data acquisition, and post-acquisition analysis were aided by a microcomputer running the Pclamp program suite (AXON INSTRUMENTS, Foster City, Calif.).
Methods for oocyte isolation and micro-injection were previously described in Goldin, Meth. Cell Biol, 36, 487, 1991, and Swanson and Folander, Meth. Enzymol., 207, 310, 1992. Currents expressed in oocytes were measured using a DAGAN model CA-1 two-electrode voltage clamp. Delivery of command voltages, data acquisition and post-acquisition analysis were aided by a microcomputer running the Pclamp program suite. The oocyte bathing solution consisted of 96 mM NaCl, 2.5 mM KCl, 1 mM MgCl2, 1.8 mM CaCl2, 10 mM HEPES, and 0.05% BSA. The pH was 7.2. All recordings were obtained at room temperature (19°-22° C.). The intracellular microelectrodes were fabricated from DAGAN LE-16 glass in a two-stage pull to a final resistance of 0.6 to 2M.OMEGA. and filled with 3M KCl. For both lymphocyte and oocyte experiments, peptides were diluted into the extracellular solution from 20 μM aqueous stock containing 100 mM NaCl. The presence of 0.05% BSA in the bath solution inhibited non-specific loss of dilute peptide toxins in the perfusion tubing.
Both native and recombinant MgTX were tested for their ability to block voltage gated K^+ channels. […] There was insufficient native toxin to carry out selectivity studies, so those were conducted using the recombinant material exclusively. […] The apparent IC50 for inhibition of the lymphocyte Kv 1.3 current is between 20 to 100 pM. […] As reported previously, MgTX has no effect on three different ChTX-sensitive, Ca^2+ -activated K^+ channels of lymphocytes, even at 100 nM (Leonard et al., Proc. Natl. Acad. Sci. U.S.A. 89, 10094, 1992).

T4 sequence (P22001 whole entry): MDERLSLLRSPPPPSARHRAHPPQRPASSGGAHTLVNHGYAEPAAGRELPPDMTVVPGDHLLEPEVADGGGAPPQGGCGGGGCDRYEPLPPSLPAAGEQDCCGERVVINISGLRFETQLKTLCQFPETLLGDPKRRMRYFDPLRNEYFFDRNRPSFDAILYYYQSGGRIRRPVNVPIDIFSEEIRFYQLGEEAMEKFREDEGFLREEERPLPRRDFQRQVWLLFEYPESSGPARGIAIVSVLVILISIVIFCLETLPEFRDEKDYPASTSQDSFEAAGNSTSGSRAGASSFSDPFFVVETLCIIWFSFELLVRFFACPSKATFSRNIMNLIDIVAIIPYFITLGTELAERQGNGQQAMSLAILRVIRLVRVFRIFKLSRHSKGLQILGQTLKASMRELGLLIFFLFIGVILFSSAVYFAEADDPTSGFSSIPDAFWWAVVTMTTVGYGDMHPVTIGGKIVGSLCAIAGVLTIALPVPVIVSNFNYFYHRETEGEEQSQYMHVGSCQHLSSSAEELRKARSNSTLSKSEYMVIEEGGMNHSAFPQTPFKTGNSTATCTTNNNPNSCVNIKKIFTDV
T3 sequence (Q28204 whole entry): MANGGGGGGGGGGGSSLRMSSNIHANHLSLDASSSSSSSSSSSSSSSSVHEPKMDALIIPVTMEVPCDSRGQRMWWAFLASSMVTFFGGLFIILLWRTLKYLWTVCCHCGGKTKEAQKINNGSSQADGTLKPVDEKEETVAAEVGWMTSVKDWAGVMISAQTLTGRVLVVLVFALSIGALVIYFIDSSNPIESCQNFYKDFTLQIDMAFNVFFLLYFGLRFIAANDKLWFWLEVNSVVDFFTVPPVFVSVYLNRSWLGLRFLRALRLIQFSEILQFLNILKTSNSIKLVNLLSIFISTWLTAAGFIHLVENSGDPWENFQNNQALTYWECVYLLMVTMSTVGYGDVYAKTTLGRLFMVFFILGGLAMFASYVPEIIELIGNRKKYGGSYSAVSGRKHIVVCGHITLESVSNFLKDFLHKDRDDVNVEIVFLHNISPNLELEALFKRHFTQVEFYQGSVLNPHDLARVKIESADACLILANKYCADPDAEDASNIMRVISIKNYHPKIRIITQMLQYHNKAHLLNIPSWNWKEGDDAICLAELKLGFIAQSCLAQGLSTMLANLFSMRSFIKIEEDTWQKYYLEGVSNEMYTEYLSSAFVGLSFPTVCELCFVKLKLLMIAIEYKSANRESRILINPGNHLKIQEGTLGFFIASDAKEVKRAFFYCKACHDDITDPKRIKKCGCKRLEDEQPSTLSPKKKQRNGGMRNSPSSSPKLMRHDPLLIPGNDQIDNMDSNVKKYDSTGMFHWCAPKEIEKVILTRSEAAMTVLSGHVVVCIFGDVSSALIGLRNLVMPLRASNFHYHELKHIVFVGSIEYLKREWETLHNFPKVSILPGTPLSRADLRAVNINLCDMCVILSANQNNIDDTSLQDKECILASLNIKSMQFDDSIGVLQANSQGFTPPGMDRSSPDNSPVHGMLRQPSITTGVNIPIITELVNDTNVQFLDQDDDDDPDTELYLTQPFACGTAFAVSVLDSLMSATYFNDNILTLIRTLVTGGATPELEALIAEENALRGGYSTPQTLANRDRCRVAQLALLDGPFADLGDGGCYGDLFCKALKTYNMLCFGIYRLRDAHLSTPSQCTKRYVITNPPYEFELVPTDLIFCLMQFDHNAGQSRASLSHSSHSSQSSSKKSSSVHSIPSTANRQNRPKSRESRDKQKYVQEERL
T3 sequence (Q28067 whole entry partner): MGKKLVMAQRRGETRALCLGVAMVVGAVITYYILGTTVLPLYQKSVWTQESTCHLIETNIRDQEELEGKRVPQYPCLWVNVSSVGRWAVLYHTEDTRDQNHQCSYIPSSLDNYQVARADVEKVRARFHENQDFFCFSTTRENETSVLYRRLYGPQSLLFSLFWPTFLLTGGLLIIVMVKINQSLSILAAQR
T2 sequence (P15384 whole entry): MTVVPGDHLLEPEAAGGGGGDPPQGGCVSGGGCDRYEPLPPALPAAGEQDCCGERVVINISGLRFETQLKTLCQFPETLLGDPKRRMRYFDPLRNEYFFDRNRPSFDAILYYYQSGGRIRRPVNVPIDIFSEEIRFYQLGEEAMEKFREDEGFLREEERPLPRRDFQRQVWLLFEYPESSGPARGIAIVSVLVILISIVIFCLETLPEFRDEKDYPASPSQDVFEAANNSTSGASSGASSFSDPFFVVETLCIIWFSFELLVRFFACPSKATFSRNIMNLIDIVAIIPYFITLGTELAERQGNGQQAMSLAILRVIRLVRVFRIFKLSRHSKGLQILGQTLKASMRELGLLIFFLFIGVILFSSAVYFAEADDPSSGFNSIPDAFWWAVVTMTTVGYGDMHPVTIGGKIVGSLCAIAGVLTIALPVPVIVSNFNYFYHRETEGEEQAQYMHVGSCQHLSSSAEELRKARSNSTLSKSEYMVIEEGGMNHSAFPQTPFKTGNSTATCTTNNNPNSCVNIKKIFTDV
T1 sequence (P17659 whole entry): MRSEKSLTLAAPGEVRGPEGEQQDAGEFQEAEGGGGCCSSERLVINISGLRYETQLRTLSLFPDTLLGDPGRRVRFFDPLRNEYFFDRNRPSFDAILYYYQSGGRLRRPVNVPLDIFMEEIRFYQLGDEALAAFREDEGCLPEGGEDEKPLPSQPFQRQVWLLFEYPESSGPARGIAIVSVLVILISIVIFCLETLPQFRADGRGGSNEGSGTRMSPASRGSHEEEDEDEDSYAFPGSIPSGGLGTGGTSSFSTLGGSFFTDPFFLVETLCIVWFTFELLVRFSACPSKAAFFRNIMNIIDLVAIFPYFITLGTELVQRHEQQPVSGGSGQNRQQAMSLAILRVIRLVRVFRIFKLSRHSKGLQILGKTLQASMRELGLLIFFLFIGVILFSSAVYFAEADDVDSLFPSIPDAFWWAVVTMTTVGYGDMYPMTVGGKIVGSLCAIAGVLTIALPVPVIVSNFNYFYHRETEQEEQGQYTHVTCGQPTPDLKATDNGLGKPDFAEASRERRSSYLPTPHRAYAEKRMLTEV

Substance | IC50 (Kv 1.6) [µM] | potency for inhibition of [125I]ChTX binding to brain membranes compared with native MgTX (Kv 1.3) | effect on ChTX binding to the Maxi-K channel (Maxi-K channel) | potency and selectivity as an inhibitor of Kv 1.3 compared with native peptide [1] | potency and selectivity as an inhibitor of Kv 1.3 compared with native peptide ([1]; listed as recombinant MgTX)
charybdotoxin [ChTX] | > 1 | – | – | – | –
rMgTX: recombinant MgTX expressed in E. coli as T7 gene 9 fusion protein, cleaved with factor Xa; identical to native peptide (TIINVKCTSPKQCLPPCKAQFGQSAGAKCMNGKCKCYPH; ends and bridges not checked; cysteine pairing not given here; UniProt P40755 1-39, looked up) | – | same potency as native MgTX | did not affect | same potency and selectivity | identical results
